In experiment [1] the target is SLUG (SNAIL2) (UniProt O43623). Kind of experiment: co-immunoprecipitation, immunoblot. As to conditions: reference: wild-type YWHAH; sites S25. On the technique in general: A western blot detects proteins with antibodies after separation by electrophoresis.
For experiment [2], the target named is T1, FLAG-LRRC59 purified from HEK293T cells (human, UniProt Q96AG4 1-307).
T1 construct: leucine-rich repeat-containing protein 59, human cDNA NM_018509 cloned by RT-PCR into pcDNA-FLAG
T1 sequence (looked up): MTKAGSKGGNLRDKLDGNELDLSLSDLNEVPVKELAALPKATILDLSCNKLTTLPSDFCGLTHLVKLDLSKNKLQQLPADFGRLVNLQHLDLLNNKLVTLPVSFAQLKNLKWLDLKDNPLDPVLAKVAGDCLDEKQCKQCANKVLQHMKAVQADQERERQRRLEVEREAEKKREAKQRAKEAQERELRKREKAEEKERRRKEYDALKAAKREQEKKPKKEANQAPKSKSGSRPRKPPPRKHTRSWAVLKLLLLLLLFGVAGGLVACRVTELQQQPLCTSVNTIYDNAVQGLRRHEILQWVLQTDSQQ
Kind of experiment: pull-down; purified His-KHK-A and FLAG-LRRC59 incubated 1 h at 4 °C with 1 mM fructose in 25 mM HEPES pH 7.5, 150 mM KCl, 12.5 mM MgCl2, 0.5 mM DTT, 0.1% NP-40, 10% glycerol; His-KHK-A pulled down with nickel-NTA, anti-Flag blot. The note with it: both partners purified.

Regarding “YWHAH (14-3-3η) (from UniProt Q04917) YWHAH S25A”, the “binding against the reference” value in experiment [1] is listed as “lost”.

B1: His(6)-KHK-A purified from HEK293T cells (enzyme, human)
chain: MEEKQILCVGLVVLDVISLVDKYPKEDSEIRCLSQRWQRGGNASNSCTVLSLLGAPCAFMGSMAPGHVADFVLDDLRRYSVDLRYTVFQTTGSVPIATVIINEASGSRTILYYDRSLPDVSATDFEKVDLTQFKWIHIEGRNASEQVKMLQRIDAHNTRQPPEQKIRVSVEVEKPREELFQLFGYGDVVFVSKDVAKHLGFQSAEEALRGLYGRVRKGAVLVCAWAEEGADALGPDGKLLHSDAFPPPRVVDTLGAGDTFNASVIFSLSQGRSVQEALRFGCQVAGKKCGLQGFDGIV
notes: ketohexokinase isoform A (KHK-A), human cDNA NM_000221 cloned by RT-PCR into pcDNA-His(6); also called His-KHK-A; purified KHK-A; source: HEK293T, purified (nickel-NTA beads, eluted with 250 mM imidazole)
For B1, the binding result in experiment [2] was “binds”.

(Values after publication PMC7595112, “Ketohexokinase-A acts as a nuclear protein kinase that mediates fructose-induced metastasis in breast cancer” (Nature Communications, 2020).)
